Assay results reported in patent US12448453 (NANJING IASO BIOTECHNOLOGY, dated 2025).

How the values were obtained:
[1] = target: T1, CD22 antigen on the surface of target cells (Raji, REH, NALM6, JVM2, 3E09, 3D11) (human, UniProt P20273 20-847); test: cell-based or functional assay
[2] = target: T2, CD22-FITC protein (Acro Biosystem, Cat. No. SI2-HF2H6) (UniProt P20273 20-687, FITC label); test: flow cytometry of CAR-T cells stained with FITC-CD22 protein and APC anti-CD8, quadrant gate
T2 construct: Bought reagent; also called FITC-CD22 protein; CD22 protein
Protocol: Cell samples were stained with APC mouse anti-human CD8, PE anti-human EGFR and FITC-CD22 protein.
When the cells were cultured to the 6th or 7th day, the expression of CAR molecules, tEGFR molecules and CD8 on the cell surface was detected by flow cytometry. […] On day 6 of cell culture, approximately 5 ×10^5 cells were removed from each sample individually, and the medium was removed by centrifugation at 500 g. […] The mixtures were mixed well and incubated at 4° C. in the dark for 20 min. After completion of incubation, the cells were washed twice with PBS+1% HSA solution again, re-suspended in 200 μL of PBS+1% HSA solution, and then loaded onto the instrument for testing.

[3] = target: T1, CD22 antigen on the surface of target …; test: cell-based or functional assay; remark: listed apart in the source
[4] = target: T1, CD22 antigen on the surface of target …; test: cell-based or functional assay; remark: listed apart in the source
[5] = target: T3, human CD22 (human, UniProt P20273 20-687, limits assumed); test: ForteBio, antibody in the form of IgG, avid
T3 construct: CD22-llama-Fc and CD22-his are named only for the yeast library sorting; also called CD22 antigen

[6] = target: T3, human CD22; test: ForteBio, antibody in the form of Fab, monovalent

B1: clone 28 CAR (CD22-targeted chimeric antigen receptor, clone 28 scFv with CD8α hinge and transmembrane region, 4-1BB and CD3z), on reporter cells or CAR-T cells (other)
chain: QVQLQESGPGLVKPSETLSLTCTVSGGSISSYYWSWIRQPAGKGLEWIGRIYTSGSTNYNPSLKSRVTMSVDTSKNQFSLKLSSVTAADTAVYYCARDLYRDGMDVWGQGTTVTVSSGGGGSGGGGSGGGGSDIQMTQSPSTLSASVGDRVTITCRASQSISSWLAWYQQKPGKAPKLLISDASSLESGVPSRFSGSGSGTEFTLTISSLQPDDFATYYCQQANTYSPTFGGGTKVEIKFVPVFLPAKPTTTPAPRPPTPAPTIASQPLSLRPEACRPAAGGAVHTRGLDFACDIYIWAPLAGTCGVLLLSLVITLYCNHRNKRGRKKLLYIFKQPFMRPVQTTQEEDGCSCRFPEEEEGGCELRVKFSRSADAPAYQQGQNQLYNELNLGRREEYDVLDKRRGRDPEMGGKPRRKNPQEGLYNELQKDKMAEAYSEIGMKGERRRGKGHDGLYQGLSTATKDTYDALHMQALPPRGSGEGRGSLLTCGDVEENPG
notes: Chimeric antigen receptor on the cell surface; The entry ends with GSG and the T2A remnant; also called clone28-bbz
[1]
  positive rate of CD107a in the CD8+/CAR+ cell population, target cell 3D11 (CD22 knockout/knockdown Raji): 16.9%
  positive rate of CD107a in the CD8+/CAR+ cell population, target cell JVM2: 43.5%
  positive rate of CD107a in the CD8+/CAR+ cell population, target cell NALM6: 73.5%
  positive rate of CD107a in the CD8+/CAR+ cell population, target cell REH: 70.4%
  positive rate of CD107a in the CD8+/CAR+ cell population, target cell raji: 54.8%
[2]
  percent of cells in Q1 (FITC-CD22 positive, APC-CD8 negative): 23.3%
  percent of cells in Q2 (FITC-CD22 positive, APC-CD8 positive): 12.7%
[3]
  in vitro cell killing efficiency, target cells REH-ffLuc, 17 h, E:T 0.5:1: -50.1%
  in vitro cell killing efficiency, target cells REH-ffLuc, 17 h, E:T 1:1: -23.9%
  in vitro cell killing efficiency, target cells REH-ffLuc, 17 h, E:T 2:1: 63.8%
[4]
  in vitro cell killing efficiency, target cells NALM6-ffLuc, 17 h, E:T 0.5:1: -26.8%
  in vitro cell killing efficiency, target cells NALM6-ffLuc, 17 h, E:T 1:1: 13.8%
  in vitro cell killing efficiency, target cells NALM6-ffLuc, 17 h, E:T 2:1: 76.1%

B2: clone 80 anti-CD22 antibody in the form of IgG (antibody, V domains shown)
VH: QVQLQESGPGLVKPSGTLSLTCAVSGGSISSSNWWSWVRQPPGKGLEWIGEIYHSGSTNYNPSLKSRVTISVDKSKNQFSLKLSSVTAADTAVYYCARLPGYESAFDIWGQGTMVTVSS
VL: EIVLTQSPGTLSLSPGERATLSCRASQSVSSSYLAWYQQKPGQAPRLLIYGASSRATGIPDRFSGSGSGTDFTLTISRLEPEDFAVYYCQQAGLFPYTFGGGTKVEIK
notes: Fully human; tested 'in the form of IgG'
[5]
  Kd: 0.82 nM
  Response: 0.93 nm
  koff: 0.0002 s⁻¹
  kon: 240000 M⁻¹ s⁻¹

B3: clone 80 anti-CD22 antibody in the form of Fab (Fab, V domains shown)
VH: QVQLQESGPGLVKPSGTLSLTCAVSGGSISSSNWWSWVRQPPGKGLEWIGEIYHSGSTNYNPSLKSRVTISVDKSKNQFSLKLSSVTAADTAVYYCARLPGYESAFDIWGQGTMVTVSS
VL: EIVLTQSPGTLSLSPGERATLSCRASQSVSSSYLAWYQQKPGQAPRLLIYGASSRATGIPDRFSGSGSGTDFTLTISRLEPEDFAVYYCQQAGLFPYTFGGGTKVEIK
notes: Tested 'in the form of Fab'
[6]
  Kd: 13 nM
  Response: 0.24 nm
  koff: 0.0046 s⁻¹
  kon: 360000 M⁻¹ s⁻¹

B4: clone 17 anti-CD22 antibody in the form of IgG (antibody, V domains shown)
VH: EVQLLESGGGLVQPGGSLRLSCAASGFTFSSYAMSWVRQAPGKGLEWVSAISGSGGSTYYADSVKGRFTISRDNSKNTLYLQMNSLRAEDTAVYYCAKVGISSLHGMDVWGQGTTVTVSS
VL: DIQMTQSPSTLSASVGDRVTITCRASQSISSWLAWYQQKPGKAPKLLIYKASSLESGVPSRFSGSGSGTEFTLTISSLQPDDFATYYCQQYERFPWTFGGGTKVEIK
notes: as for B2
[5]
  Kd: 1.6 nM
  Response: 0.62 nm
  koff: 0.0002 s⁻¹
  kon: 130000 M⁻¹ s⁻¹

B5: clone 28 anti-CD22 antibody in the form of IgG (antibody, V domains shown)
VH: QVQLQESGPGLVKPSETLSLTCTVSGGSISSYYWSWIRQPAGKGLEWIGRIYTSGSTNYNPSLKSRVTMSVDTSKNQFSLKLSSVTAADTAVYYCARDLYRDGMDVWGQGTTVTVSS
VL: DIQMTQSPSTLSASVGDRVTITCRASQSISSWLAWYQQKPGKAPKLLISDASSLESGVPSRFSGSGSGTEFTLTISSLQPDDFATYYCQQANTYSPTFGGGTKVEIK
notes: as for B2
[5]
  Kd: 0.97 nM
  Response: 0.81 nm
  koff: 0.0002 s⁻¹
  kon: 210000 M⁻¹ s⁻¹

B6: clone 28 anti-CD22 antibody in the form of Fab (Fab, V domains shown)
VH: QVQLQESGPGLVKPSETLSLTCTVSGGSISSYYWSWIRQPAGKGLEWIGRIYTSGSTNYNPSLKSRVTMSVDTSKNQFSLKLSSVTAADTAVYYCARDLYRDGMDVWGQGTTVTVSS
VL: DIQMTQSPSTLSASVGDRVTITCRASQSISSWLAWYQQKPGKAPKLLISDASSLESGVPSRFSGSGSGTEFTLTISSLQPDDFATYYCQQANTYSPTFGGGTKVEIK
notes: Tested 'in the form of Fab'
[6]
  Kd: 0.94 nM
  Response: 0.25 nm
  koff: 0.00027 s⁻¹
  kon: 280000 M⁻¹ s⁻¹

B7: clone 17 anti-CD22 antibody in the form of Fab (Fab, V domains shown)
VH: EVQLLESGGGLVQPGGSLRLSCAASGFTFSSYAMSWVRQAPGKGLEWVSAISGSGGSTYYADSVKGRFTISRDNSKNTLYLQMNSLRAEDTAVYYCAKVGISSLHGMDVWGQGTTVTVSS
VL: DIQMTQSPSTLSASVGDRVTITCRASQSISSWLAWYQQKPGKAPKLLIYKASSLESGVPSRFSGSGSGTEFTLTISSLQPDDFATYYCQQYERFPWTFGGGTKVEIK
notes: Tested 'in the form of Fab'
[6]
  Kd: 8.1 nM
  Response: 0.19 nm
  koff: 0.0017 s⁻¹
  kon: 210000 M⁻¹ s⁻¹

B8: clone 80 CAR (CD22-targeted chimeric antigen receptor, clone 80 scFv with CD8α hinge and transmembrane region, 4-1BB and CD3z), on reporter cells or CAR-T cells (other)
chain: QVQLQESGPGLVKPSGTLSLTCAVSGGSISSSNWWSWVRQPPGKGLEWIGEIYHSGSTNYNPSLKSRVTISVDKSKNQFSLKLSSVTAADTAVYYCARLPGYESAFDIWGQGTMVTVSSGGGGSGGGGSGGGGSEIVLTQSPGTLSLSPGERATLSCRASQSVSSSYLAWYQQKPGQAPRLLIYGASSRATGIPDRFSGSGSGTDFTLTISRLEPEDFAVYYCQQAGLFPYTFGGGTKVEIKFVPVFLPAKPTTTPAPRPPTPAPTIASQPLSLRPEACRPAAGGAVHTRGLDFACDIYIWAPLAGTCGVLLLSLVITLYCNHRNKRGRKKLLYIFKQPFMRPVQTTQEEDGCSCRFPEEEEGGCELRVKFSRSADAPAYQQGQNQLYNELNLGRREEYDVLDKRRGRDPEMGGKPRRKNPQEGLYNELQKDKMAEAYSEIGMKGERRRGKGHDGLYQGLSTATKDTYDALHMQALPPRGSGEGRGSLLTCGDVEENPG
notes: Chimeric antigen receptor on the cell surface; also called clone80-bbz
[1]
  positive rate of CD107a in the CD8+/CAR+ cell population, target cell 3D11 (CD22 knockout/knockdown Raji): 18.9%
  positive rate of CD107a in the CD8+/CAR+ cell population, target cell JVM2: 32.8%
  positive rate of CD107a in the CD8+/CAR+ cell population, target cell NALM6: 59.7%
  positive rate of CD107a in the CD8+/CAR+ cell population, target cell REH: 62.3%
  positive rate of CD107a in the CD8+/CAR+ cell population, target cell raji: 39.7%
[2]
  percent of cells in Q1 (FITC-CD22 positive, APC-CD8 negative): 27.5%
  percent of cells in Q2 (FITC-CD22 positive, APC-CD8 positive): 17.6%
[3]
  in vitro cell killing efficiency, target cells REH-ffLuc, 17 h, E:T 0.5:1: -18.2%
  in vitro cell killing efficiency, target cells REH-ffLuc, 17 h, E:T 1:1: 40.2%
  in vitro cell killing efficiency, target cells REH-ffLuc, 17 h, E:T 2:1: 89%
[4]
  in vitro cell killing efficiency, target cells NALM6-ffLuc, 17 h, E:T 0.5:1: 15.3%
  in vitro cell killing efficiency, target cells NALM6-ffLuc, 17 h, E:T 1:1: 58.5%
  in vitro cell killing efficiency, target cells NALM6-ffLuc, 17 h, E:T 2:1: 90.5%
